{"source": "paper PMC5645493", "about": "“LAR-RPTP Clustering Is Modulated by Competitive Binding between Synaptic Adhesion Partners and Heparan Sulfate” (Frontiers in Molecular Neuroscience, 2017)", "binders": {"B1": {"name": "human IL1RAPL1 Ig1-3 (domain or fragment)", "chain": "SADGCTDWSIDIKKYQVLVGEPVRIKCALFYGYIRTNYSLAQSAGLSLMWYKSSGPGDFEEPIAFDGSRMSKEEDSIWFRPTLLQDSGLYACVIRNSTYCMKVSISLTVGENDTGLCYNSKMKYFEKAELSKSKEISCRDIEDFLLPTREPEILWYKECRTKTWRPSIVFKRDTLLIREVREDDIGNYTCELKYGGFVVRRTTELTVTAPLTDKPPKLLYPMESKLTIQETQLGDSANLTCRAFFGYSGDVSPLIYWMKGEKFIEDLDENRVWESDIRILKEHLGEQEVSISLIVDSVEEGDLGNYSCYVENGNGRRHASVLL", "modifications": "glycans (NAG2-BMA-MAN) attached to N138", "notes": "IL-1 receptor accessory protein-like 1 (IL1RAPL1), human, Ig-like domains 1-3 of the extracellular part; In the functional row the Fc-fused form (Fc not cleaved) was used; also called IL-1 receptor accessory protein-like 1; IL1RAPL1 Ig1-3-Fc / IL1RAPL1-Fc (Fc kept, in the clustering assays only); source: High Five insect cells (baculovirus), secreted, purified (IgG Sepharose or protein A …)"}, "B2": {"name": "human PTPδ Ig1-3(+/+) (domain or fragment)", "chain": "ETPPRFTRTPVDQTGVSGGVASFICQATGDPRPKIVWNKKGKKVSNQRFEVIEFDDGSGSVLRIQPLRTPRDEAIYECVASNNVGEISVSTRLTVLREDQIPRGFPTIDMGPQLKVVERTRTATMLCAASGNPDPEITWFKDFLPVDTSNNNGRIKQLRSESIGGTPIRGALQIEQSEESDQGKYECVATNSAGTRYSAPANLYVRELREVRRVPPRFSIPPTNHEIMPGGSVNITCVAVGSPMPYVKWMLGAEDLTPEDDMPIGRNVLELNDVRQSANYTCVAMSTLGVIEAIAQIT", "notes": "receptor-type tyrosine-protein phosphatase delta (PTPδ), human, Ig-like domains 1-3, splice form with the MeA and MeB inserts (+/+); In the functional rows the Fc-fused form (Fc not cleaved) was used; also called PTPδ Ig1-3 MeA+MeB+; LAR-RPTP (PTPδ); source: High Five insect cells (baculovirus), secreted, purified (IgG Sepharose or protein A Sepharose, thrombin, Superdex 200)"}}, "key": {"[1]": {"target": "the molecule itself", "test": "crystal structure; PTPδ Ig1-3(+/+) mixed with IL1RAPL1 Ig1-3 at 1:1, complex isolated by gel filtration; sitting drop, 296 K, 100 mM Tris-HCl pH 7.5, 200 mM zinc acetate, 10% PEG8K; space group P3_(2)12; 3.08 Å"}, "human IL1RAPL1 Ig1-3": {"target": "B1", "test": "crystal structure; PTPδ Ig1-3(+/+) mixed with IL1RAPL1 Ig1-3 at 1:1, complex isolated by gel filtration; sitting drop, 296 K, 100 mM Tris-HCl pH 7.5, 200 mM zinc acetate, 10% PEG8K; space group P3_(2)12; 3.08 Å", "settings": "both partners purified"}}}
{"binder": "B1", "values": [{"measurement": "binding result", "setting": "[1]", "result": "binds"}]}
{"binder": "B2", "values": [{"measurement": "binding result", "setting": "[1]", "result": "binds"}, {"measurement": "binding result", "setting": "human IL1RAPL1 Ig1-3", "result": "binds"}]}
